Assay results published in the supplement of paper PMC9112550, “Optimization of the antimicrobial peptide Bac7 by deep mutational scanning” (BMC Biology, 2022).

The sequences below were run on Escherichia coli TOP10 (assay: shrunken log2 fold change of peptide-encoding DNA abundance (4.5 h post-induction vs induction); higher = less antimicrobial activity (less host growth inhibition)). Settings: time post-induction: 4.5 h; library: site-saturation at positions 5, 18, 19, 20.
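Also: peptides expressed intracellularly from a pBAD plasmid library in pooled LB shake-flask culture, induced with 0.3% L-arabinose, DNA abundance read by NGS, three biological replicates, DESeq2 with apeglm shrinkage.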

Sequence | shrunken log2 fold change
RRIRMRPPRLPRPRPRPPYRPRP | 0.00408
RRIRQRPPRLPRPRPRPHQSPRP | 0.0405
RRIRTRPPRLPRPRPRPKRGPRP | 0.175
RRIRARPPRLPRPRPRPEMKPRP | 3.7
RRIRCRPPRLPRPRPRPESKPRP | 0.198
RRIRRRPPRLPRPRPRPPIVPRP | -0.00408
RRIRKRPPRLPRPRPRPYMGPRP | -0.00674
RRIRVRPPRLPRPRPRPNIAPRP | 0.249
RRIRKRPPRLPRPRPRPCRWPRP | -0.0708
RRIRFRPPRLPRPRPRPHEKPRP | -0.0136
RRIRFRPPRLPRPRPRPRIPPRP | -0.0955
RRIRQRPPRLPRPRPRPCKTPRP | -0.01
RRIRVRPPRLPRPRPRPTDTPRP | 0.817
RRIRRRPPRLPRPRPRPKQIPRP | 0.289
RRIRWRPPRLPRPRPRPEFPPRP | 0.0195
RRIRYRPPRLPRPRPRPRRKPRP | 0.0824
RRIRGRPPRLPRPRPRPWCMPRP | 0.13
RRIRCRPPRLPRPRPRPCPRPRP | 0.00856
RRIRYRPPRLPRPRPRPVDPPRP | -0.0356
RRIRERPPRLPRPRPRPTWLPRP | 0.289
RRIRRRPPRLPRPRPRPDPSPRP | 0.213
RRIRQRPPRLPRPRPRPHMYPRP | -0.706
RRIRTRPPRLPRPRPRPGHRPRP | -0.216
RRIRTRPPRLPRPRPRPLEVPRP | -0.00296
RRIRKRPPRLPRPRPRPHGDPRP | 0.0106

Sequence | shrunken log2 fold change
RRIRKRPPRLPRPRPRPVPLPRP | 0.185
RRIRARPPRLPRPRPRPRAPPRP | 1.01
RRIRTRPPRLPRPRPRPAPSPRP | 0.231
RRIRMRPPRLPRPRPRPNGNPRP | 0.261
RRIRTRPPRLPRPRPRPATVPRP | 0.0426
RRIRSRPPRLPRPRPRPVNSPRP | -0.365
RRIRTRPPRLPRPRPRPMTEPRP | -0.0359
RRIRYRPPRLPRPRPRPAVAPRP | 0.159
RRIRARPPRLPRPRPRPTPGPRP | 0.826
RRIRGRPPRLPRPRPRPNMKPRP | 0.275
RRIRPRPPRLPRPRPRPHHPPRP | -0.224
RRIRKRPPRLPRPRPRPPIWPRP | 0.106
RRIRRRPPRLPRPRPRPLQFPRP | 0.313
RRIRRRPPRLPRPRPRPFCGPRP | 0.143
RRIRERPPRLPRPRPRPGAIPRP | -0.187
RRIRYRPPRLPRPRPRPGQMPRP | -0.553
RRIRDRPPRLPRPRPRPWPKPRP | -0.149
RRIRSRPPRLPRPRPRPGLCPRP | 0.238
RRIRQRPPRLPRPRPRPLMNPRP | -0.131
RRIRGRPPRLPRPRPRPKVIPRP | 0.197
RRIRQRPPRLPRPRPRPSAPPRP | 0.175
RRIRPRPPRLPRPRPRPHDAPRP | 0.0201
RRIRDRPPRLPRPRPRPATKPRP | 0.318
RRIRERPPRLPRPRPRPKVHPRP | -0.196
RRIRARPPRLPRPRPRPHFFPRP | 1.8

Sequence | shrunken log2 fold change
RRIRIRPPRLPRPRPRPPLRPRP | 0.0855
RRIRWRPPRLPRPRPRPPISPRP | 0.172
RRIRMRPPRLPRPRPRPVSVPRP | 0.699
RRIRIRPPRLPRPRPRPGIIPRP | -0.0859
RRIRARPPRLPRPRPRPRGLPRP | 0.628
RRIRRRPPRLPRPRPRPPNTPRP | 0.884
RRIRNRPPRLPRPRPRPAPDPRP | 0.147
RRIRNRPPRLPRPRPRPRHQPRP | -0.038
RRIRKRPPRLPRPRPRPKPYPRP | 0.307
RRIRRRPPRLPRPRPRPQEPPRP | 0.0839
RRIRERPPRLPRPRPRPCWSPRP | 0.0767
RRIRRRPPRLPRPRPRPQMFPRP | -0.25
RRIRQRPPRLPRPRPRPKQTPRP | -0.0544
RRIRARPPRLPRPRPRPPHLPRP | 2.23
RRIRGRPPRLPRPRPRPPEEPRP | 1.5
RRIRCRPPRLPRPRPRPIHVPRP | -0.377
RRIRPRPPRLPRPRPRPRPPPRP | 0.831
RRIRHRPPRLPRPRPRPKPQPRP | 0.269
RRIRGRPPRLPRPRPRPVFFPRP | 0.888
RRIRMRPPRLPRPRPRPLAEPRP | 3.05
RRIRMRPPRLPRPRPRPDLLPRP | 2.73
RRIRARPPRLPRPRPRPMQVPRP | 0.277
RRIRKRPPRLPRPRPRPFAIPRP | -0.00592
RRIRLRPPRLPRPRPRPRRPPRP | 0.39
RRIRLRPPRLPRPRPRPRHTPRP | -0.236

Sequence | shrunken log2 fold change
RRIRKRPPRLPRPRPRPQKCPRP | 0.00165
RRIRQRPPRLPRPRPRPDQWPRP | 0.129
RRIRQRPPRLPRPRPRPPWAPRP | 0.577
RRIRCRPPRLPRPRPRPLHGPRP | -0.089
RRIRRRPPRLPRPRPRPTFWPRP | 0.436
RRIRYRPPRLPRPRPRPQFHPRP | -1.09
RRIRCRPPRLPRPRPRPRMWPRP | 0.0419
RRIRMRPPRLPRPRPRPWMQPRP | 2.38
RRIRFRPPRLPRPRPRPCETPRP | -0.00947
RRIRTRPPRLPRPRPRPIYEPRP | -0.246
RRIRTRPPRLPRPRPRPPLWPRP | 0.689
RRIRQRPPRLPRPRPRPQFSPRP | -0.525
RRIRMRPPRLPRPRPRPRMSPRP | 0.353
RRIRLRPPRLPRPRPRPGWTPRP | 0.208
RRIRPRPPRLPRPRPRPCWDPRP | -0.0457
RRIRRRPPRLPRPRPRPRKNPRP | 0.179
RRIRSRPPRLPRPRPRPLWMPRP | -0.0686
RRIRNRPPRLPRPRPRPFAFPRP | -0.74
RRIRARPPRLPRPRPRPCCDPRP | 0.404
RRIRRRPPRLPRPRPRPKTSPRP | 2.22
RRIRLRPPRLPRPRPRPYGTPRP | -0.68
RRIRHRPPRLPRPRPRPNQHPRP | -0.922
RRIRLRPPRLPRPRPRPFNQPRP | -0.122
RRIRNRPPRLPRPRPRPLHEPRP | 0.0748
RRIRHRPPRLPRPRPRPWVYPRP | -0.125

Sequence | shrunken log2 fold change
RRIRHRPPRLPRPRPRPYHCPRP | -0.316
RRIRGRPPRLPRPRPRPLETPRP | 0.985
RRIRQRPPRLPRPRPRPKIAPRP | 0.278
RRIRCRPPRLPRPRPRPCFIPRP | -0.488
RRIRHRPPRLPRPRPRPGCAPRP | 0.124
RRIRYRPPRLPRPRPRPMPWPRP | -0.0575
RRIRMRPPRLPRPRPRPEGNPRP | 0.182
RRIRHRPPRLPRPRPRPDGRPRP | 0.172
RRIRGRPPRLPRPRPRPQRYPRP | -0.00818
RRIRCRPPRLPRPRPRPAKCPRP | -0.101
RRIRARPPRLPRPRPRPLHLPRP | 0.0337
RRIRARPPRLPRPRPRPGKYPRP | -0.152
RRIRWRPPRLPRPRPRPHRIPRP | -0.225
RRIRSRPPRLPRPRPRPVPSPRP | 0.391
RRIRMRPPRLPRPRPRPSCRPRP | 0.46
RRIRARPPRLPRPRPRPASNPRP | 0.5
RRIRIRPPRLPRPRPRPRHNPRP | -0.245
RRIRKRPPRLPRPRPRPPVPPRP | 0.794
RRIRVRPPRLPRPRPRPILTPRP | -0.443
RRIRCRPPRLPRPRPRPDEVPRP | 0.00585
RRIRMRPPRLPRPRPRPPNAPRP | 1.11
RRIRVRPPRLPRPRPRPNPMPRP | 0.0227
RRIRQRPPRLPRPRPRPDTGPRP | -0.0117
RRIRHRPPRLPRPRPRPEGQPRP | -0.0936
RRIRLRPPRLPRPRPRPHIDPRP | -0.135

Sequence | shrunken log2 fold change
RRIRFRPPRLPRPRPRPDPLPRP | 0.165
RRIRVRPPRLPRPRPRPICYPRP | 0.19
RRIRFRPPRLPRPRPRPYYHPRP | -0.146
RRIRIRPPRLPRPRPRPAGYPRP | -0.038
RRIRWRPPRLPRPRPRPVHLPRP | -0.00868
RRIRIRPPRLPRPRPRPRVVPRP | 0.00259
RRIRCRPPRLPRPRPRPNYDPRP | -0.672
RRIRERPPRLPRPRPRPDPIPRP | -0.224
RRIRMRPPRLPRPRPRPEDGPRP | 2.85
RRIRARPPRLPRPRPRPHSAPRP | -0.0202
RRIRDRPPRLPRPRPRPEICPRP | 0.023
RRIRPRPPRLPRPRPRPIRIPRP | -0.149
RRIRMRPPRLPRPRPRPGKLPRP | 0.515
RRIRCRPPRLPRPRPRPAIVPRP | -0.37
RRIRIRPPRLPRPRPRPRHVPRP | -0.163
RRIRIRPPRLPRPRPRPMAGPRP | 0.022
RRIRIRPPRLPRPRPRPVGKPRP | -0.118
RRIRPRPPRLPRPRPRPPREPRP | 0.678
RRIRARPPRLPRPRPRPDAMPRP | 1.02
RRIRKRPPRLPRPRPRPHSEPRP | -0.0169
RRIRFRPPRLPRPRPRPFIPPRP | -0.823
RRIRNRPPRLPRPRPRPLDIPRP | 0.0164
RRIRARPPRLPRPRPRPDRYPRP | -0.474
RRIRHRPPRLPRPRPRPGTCPRP | -0.318
RRIRVRPPRLPRPRPRPRLCPRP | 0.564
